Laboratory results: patent US20230365709A1

Biological target: recombinant human CD16A (48R/158F) expressed on the surface of CHO cells (human) (UniProt P08637)
Test: flow cytometry, CHO-huCD16A cells, apparent KD; SD 62.5

B1: 2scDb-AFc-3 (protein)
chain 1: EVQLQQSGPELVKPGASVKMSCKASGYTFTDYVINWGKQRSGQGLEWIGEIYPGSGTNYYNEKFKAKATLTADKSSNIAYMQLSSLTSEDSAVYFCARRGRYGLYAMDYWGQGTSVTVSSGGSGGSGGSDIVMTQSPATLSLSPGERATLSCRSSKSLQNVNGNTYLYWFQQKPGQSPQLLIYRMSNLNSGVPDRFSGSGSGTEFTLTISSLEPEDFAVYYCMQHLEYPITFGAGTKLEIKGGSGGSGGSGGSGGSGGSGGSEVQLVESGGGLVKPGGSLKLSCAASGYTFTSYVMHWVRQAPGKGLEWIGYINPYNDGTKYNEKFQGRVTISSDKSISTAYMELSSLRSEDTAMYYCARGTYYYGTRVFDYWGQGTLVTVSSGGSGGSGGSDIQMTQTTSSLSASLGDRVTISCRASQDISNYLNWYQQKPDGTVKLLIYYTSRLHSGVPSRFSGSGSGTDYSLTINNLEQEDIATYFCQQGNTRPWTFGGGTKLEIKDKTHTCPPCPAPEFEGGPSVFLFPPKPKDTLMISRTPEVTCVVVAVSHEDPEVKFNWYVDGVEVHNAKTKPREEQYGSTYRVVSVLTVLHQDWLNGKEYKCKVSNKALPAPIEKTISKAKGQPREPQVYTLPPSREEMTKNQVSLWCLVKGFYPSDIAVEWESNGQPENNYKTTPPVLDSDGSFFLYSKLTVDKSRWQQGNVFSCSVMHEALHNHYTQKSLSLSPG
chain 2: EVQLVQSGAEVKKPGASVKVSCKASGYTFTNYYMQWVRQAPGQCLEWMGIINPSGGVTSYAQKFQGRVTMTRDTSTSTVYMELSSLRSEDTAVYYCARGSAYYYDFADYWGQGTLVTVSSGGSGGSGGSDIVMTQSPATLSLSPGERATLSCRSSKSLQNVNGNTYLYWFQQKPGQSPQLLIYRMSNLNSGVPDRFSGSGSGTEFTLTISSLEPEDFAVYYCMQHLEYPITFGAGTKLEIKGGSGGSGGSGGSGGSGGSGGSEVQLVESGGGLVKPGGSLKLSCAASGYTFTSYVMHWVRQAPGKGLEWIGYINPYNDGTKYNEKFQGRVTISSDKSISTAYMELSSLRSEDTAMYYCARGTYYYGTRVFDYWGQGTLVTVSSGGSGGSGGSSYELTQPLSVSVALGQTARITCGGNNIGSKSVHWYQQKPGQAPVLVIYQDKKRPSGIPERFSGSNSGNTATLTISRAQAGDEADYYCQVWDDYIVLFGCGTKLTVLDKTHTCPPCPAPEFEGGPSVFLFPPKPKDTLMISRTPEVTCVVVAVSHEDPEVKFNWYVDGVEVHNAKTKPREEQYGSTYRVVSVLTVLHQDWLNGKEYKCKVSNKALPAPIEKTISKAKGQPREPQVYTLPPSREEMTKNQVSLSCAVKGFYPSDIAVEWESNGQPENNYKTTPPVLDSDGSFFLVSKLTVDKSRWQQGNVFSCSVMHEALHNHYTQKSLSLSPG
Question: How did the Kd turn out when B1 was run?
Answer: 528 nM
